Patent publication US20050014206A1, “Method of identifying compounds that specifically inhibit the anaphase promoting complex” (Boehringer Ingelhiem International GmbH, priority 2003, published 2005)
Entries after “also recorded” stand apart in the source; their conditions may differ.

B1: CDC20 C-terminal peptide CLRREREKASTSKSSLIHQGIR (peptide)
peptide: CLRREREKASTSKSSLIHQGIR
modifications: in the peptide binding assays immobilized via the N-terminal cysteine onto maleinimide-activated POROS matrix; free peptide in the competition assays
notes: Synthetic peptide; also called CDC20 C-terminus; CDC20 peptide
B2: CDH1 C-terminal peptide CFSKTRSTKESVSVLNLFTRIR (peptide)
peptide: CFSKTRSTKESVSVLNLFTRIR
modifications: in the peptide binding assays immobilized via the N-terminal cysteine onto maleinimide-activated POROS matrix; free peptide in the competition assays
notes: Synthetic peptide; also called CDH1 C-terminus; CDH1 peptide

Tests used:
APC3 = target: T1, APC3 (Homo sapiens, UniProt P30260); experiment: Peptide binding assay (matrix-coupled peptides), APC3
T1 construct: HisHA; made in house; host or cells: Sf9 or Hi5 insect cells (baculovirus), used as lysate
T1 sequence (P30260 whole entry): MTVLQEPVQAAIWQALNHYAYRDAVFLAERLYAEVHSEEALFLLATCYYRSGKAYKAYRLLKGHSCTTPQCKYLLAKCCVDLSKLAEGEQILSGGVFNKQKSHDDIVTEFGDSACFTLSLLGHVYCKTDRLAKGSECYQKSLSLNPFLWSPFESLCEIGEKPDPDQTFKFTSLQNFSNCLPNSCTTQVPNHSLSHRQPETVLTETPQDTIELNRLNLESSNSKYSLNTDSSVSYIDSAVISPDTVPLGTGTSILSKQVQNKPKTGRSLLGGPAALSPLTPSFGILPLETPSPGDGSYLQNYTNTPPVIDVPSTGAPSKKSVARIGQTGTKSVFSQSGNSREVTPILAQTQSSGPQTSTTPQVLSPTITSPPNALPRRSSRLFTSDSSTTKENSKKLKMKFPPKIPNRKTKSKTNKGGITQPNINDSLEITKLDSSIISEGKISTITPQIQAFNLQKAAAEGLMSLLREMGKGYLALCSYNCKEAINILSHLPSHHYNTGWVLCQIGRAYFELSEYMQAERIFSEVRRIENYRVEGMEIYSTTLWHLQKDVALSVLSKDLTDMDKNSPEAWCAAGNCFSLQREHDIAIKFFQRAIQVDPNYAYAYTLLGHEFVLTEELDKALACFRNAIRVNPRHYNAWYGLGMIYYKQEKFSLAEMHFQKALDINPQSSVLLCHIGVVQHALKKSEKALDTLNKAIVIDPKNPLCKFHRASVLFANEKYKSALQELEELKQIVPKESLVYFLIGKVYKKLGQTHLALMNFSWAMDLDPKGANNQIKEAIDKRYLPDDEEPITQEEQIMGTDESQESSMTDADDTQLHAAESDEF
Procedure: (§1) Synthetic peptides used in binding and inhibition assays were […] (CDC20 C-terminus; SEQ ID NO:2), […] (CDH1 C-terminus; SEQ ID NO:1), […] (CDC20 N-terminus; SEQ ID NO:10), and CAVWSLSSCKPGFGVD (control; SEQ ID NO:11).
(§2) Peptide interaction assays were carried out as described in Wendt, K. S., et al., Nat Struct Biol 8:784-8 (2001). Synthetic peptides (see above) were immobilized via N-terminal cysteine residues onto maleinimide-activated POROS matrix ([…]) in 0.1 M HEPES, pH 7.9 for 3 hours. After washing with slightly acidic buffers, 100 μg of the resulting matrix were incubated with insect cell lysates containing recombinant APC subunits, or with fractions from anion chromatography, in total volumes of […] of TBS/T pH 7.5. After stringent washing in TBS/T 0.5 M NaCl, samples were analyzed by SDS-PAGE and immunoblotted with 12CA5 anti-HA antibodies or antibodies against APC subunits.
(§3) To test if APC3 would also interact with the C-termini of CDH1 and its related activator CDC20, insect cell lysates containing recombinantly expressed APC3 were incubated with synthetic peptides coupled to a matrix through their N-terminus. After washing, peptide-bound material was analyzed by western blot. […] In budding yeast, which lacks APC7, they share Cdc27p as their closest homologue.
(§4) In order to exclude any non-specific effects caused by incorrect folding of recombinantly expressed proteins, an alternative source of APC subunits was used in the peptide binding assays. As described above, late-eluting fractions from the ReSource Q column contained considerable amounts of the TPR subunits APC3, APC6, and APC7, while other subunits were found in lower abundance (FIG. 10).

APC6 = target: T2, APC6 (Homo sapiens, UniProt Q13042); experiment: Peptide binding assay (matrix-coupled peptides), APC6; settings: for binding of recombinant APC6 to matrix-coupled peptide: insect cell lysates, western blot
T2 construct: HisHA; made in house; host or cells: Sf9 or Hi5 insect cells (baculovirus), used as lysate
T2 sequence (Q13042 whole entry): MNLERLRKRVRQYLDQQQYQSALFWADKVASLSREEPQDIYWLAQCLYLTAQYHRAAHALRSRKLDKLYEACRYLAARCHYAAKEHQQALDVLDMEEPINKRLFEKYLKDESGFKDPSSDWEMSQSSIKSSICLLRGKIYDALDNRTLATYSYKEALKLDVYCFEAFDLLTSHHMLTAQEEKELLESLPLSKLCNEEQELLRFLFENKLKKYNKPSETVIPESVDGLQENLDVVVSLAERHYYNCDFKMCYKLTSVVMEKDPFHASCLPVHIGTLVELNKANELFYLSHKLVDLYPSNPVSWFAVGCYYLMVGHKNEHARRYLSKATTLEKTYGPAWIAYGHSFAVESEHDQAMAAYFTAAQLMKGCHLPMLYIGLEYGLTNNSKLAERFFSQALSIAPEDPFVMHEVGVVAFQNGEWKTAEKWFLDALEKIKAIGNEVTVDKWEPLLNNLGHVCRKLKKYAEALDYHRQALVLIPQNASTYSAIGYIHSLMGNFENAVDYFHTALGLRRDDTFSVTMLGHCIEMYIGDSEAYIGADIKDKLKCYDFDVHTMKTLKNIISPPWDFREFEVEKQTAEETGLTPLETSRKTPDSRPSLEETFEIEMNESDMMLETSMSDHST
Procedure: as §1, §2, §3, §4

holo-APC = target: T3, holo-APC (Homo sapiens, UniProt P30260+Q9UJX3); experiment: Peptide binding assay with holo-APC containing fractions; settings: APC-containing anion exchange fractions
T3 construct: endogenous in cells; host or cells: HeLa cells, Source15Q fractions eluting around 450 mM KCl
Procedure: as §1
Pellets from 5×10^9 logarithmically grown HeLa cells (4C, Belgium) were lysed in 20 mM TrisCl pH7.7, 150 mM KCl, 0.5 mM DTT, 0.1% Tween-20, Protease Inhibitor mix (Sigma) using a french press and cleared by 100,000×g centrifugation for 1 h. After filtration through a 0.45 μm filter, extracts were loaded onto a 60 ml Source15Q anion exchange column (Amersham) at 4 ml/min. The column was washed with 20 mM Tris-Cl pH7.7, 150 mM KCl, 0.5 mM DTT until a drop in A280 indicated the end of the flowthrough. Elution was carried out with a gradient from 150 mM to 600 mM KCl. […]
Peptide interaction assays were carried out as described in Wendt, K. S., et al., Nat Struct Biol 8:784-8 (2001). […] After stringent washing in TBS/T 0.5 M NaCl, samples were analyzed by SDS-PAGE and immunoblotted with 12CA5 anti-HA antibodies or antibodies against APC subunits.
It was tested if CDH1's C-terminus would be sufficient to interact with holo-APC. For this, APC-containing fractions were incubated with the peptide matrix and analyzed for binding of APC by detection of all subunits. […]

APC activation by CDH1 = target: T4, APC activation by CDH1 (Homo sapiens, UniProt P30260+Q9UJX3); experiment: In vitro ubiquitination assay with [125I]-labelled cyclin B as substrate; type: biochemical; settings: APC loaded with recombinant CDH1 in presence of peptide at 1 mg/ml, cyclin B fragment substrate
T4 construct: endogenous in cells; host or cells: APC immunopurified from HeLa cell extracts; CDH1 and cyclin B fragment recombinant
Procedure: (§5) Immunopurified holo-APC or subcomplexes were washed and incubated with purified recombinant CDH1 (0.5-1.0 μg per 10 μl bead volume) in TBS/T, or with insect cell lysates in TBS/T containing recombinant CDH1 proteins as indicated. Peptides for competition were used at 1 mg/ml, with the addition of 0.5 mM DTT to the buffer. Subsequently, bead-bound complexes were washed 3× with TBS/T and immunoblotted for binding of CDH1 or used in ubiquitination assays. In vitro ubiquitination reactions were performed as described (Kramer, E. R., et al., Curr Biol 8:1207-10 (1998)). Securin-myc-his substrate was detected by immunoblotting with monoclonal anti-Myc 9E10 antibodies. Alternatively, an iodinated N-terminal recombinant fragment of sea urchin cyclin B (amino acids 13-110) was used and visualized by autoradiography (Gieffers, C., et al., Mol Cell 7:907-13 (2001)).
(§6) What are the mechanistic consequences of the observed interactions between IR tail peptides and APC subunits? To address this, it was tested if the peptides would influence APC activity in in vitro ubiquitination assays. Immunopurified APC was loaded with recombinant CDH1 in the presence or absence of IR-tail or control peptides, washed, and used to ubiquitinate a radioactively labeled fragment of cyclin B (FIG. 6B). […] In contrast, an N-terminal CDC20 peptide had no effect on APC activation.

APC7 = target: T5, APC7 (Homo sapiens, UniProt Q9UJX3); experiment: Peptide binding assay (matrix-coupled peptides), APC7 and APC7 fragments; settings: for binding of recombinant APC7 to matrix-coupled peptide: recombinant APC7 in insect cell lysates, western blot
T5 construct: HisHA; made in house; host or cells: Sf9 or Hi5 insect cells (baculovirus), used as lysate
T5 sequence (Q9UJX3 whole entry, the tested form may be a part): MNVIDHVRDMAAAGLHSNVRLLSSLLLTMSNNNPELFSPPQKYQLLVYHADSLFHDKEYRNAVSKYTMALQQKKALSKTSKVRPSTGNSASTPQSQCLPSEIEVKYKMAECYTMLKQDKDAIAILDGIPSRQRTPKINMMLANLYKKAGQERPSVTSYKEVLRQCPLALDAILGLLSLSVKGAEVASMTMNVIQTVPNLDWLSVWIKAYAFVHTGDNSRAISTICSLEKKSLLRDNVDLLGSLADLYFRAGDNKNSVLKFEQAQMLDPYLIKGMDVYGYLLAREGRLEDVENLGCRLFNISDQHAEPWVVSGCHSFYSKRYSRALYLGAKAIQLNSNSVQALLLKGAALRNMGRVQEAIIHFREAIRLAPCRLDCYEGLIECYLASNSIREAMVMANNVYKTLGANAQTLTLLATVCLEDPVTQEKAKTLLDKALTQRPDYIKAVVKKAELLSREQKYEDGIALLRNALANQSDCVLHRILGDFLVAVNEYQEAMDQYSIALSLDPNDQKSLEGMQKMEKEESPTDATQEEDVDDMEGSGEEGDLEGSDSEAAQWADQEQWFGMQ
Procedure: as §1, §2, §3, §4
Lastly, the region in APC7 responsible for binding to IR peptides was mapped.

APC5 = target: T6, APC5 (Homo sapiens, UniProt Q9UJX4); experiment: Peptide binding assay (matrix-coupled peptides), APC5; settings: insect cell lysates; western blot
T6 construct: HisHA; made in house; host or cells: Sf9 or Hi5 insect cells (baculovirus), used as lysate
T6 sequence (Q9UJX4 whole entry): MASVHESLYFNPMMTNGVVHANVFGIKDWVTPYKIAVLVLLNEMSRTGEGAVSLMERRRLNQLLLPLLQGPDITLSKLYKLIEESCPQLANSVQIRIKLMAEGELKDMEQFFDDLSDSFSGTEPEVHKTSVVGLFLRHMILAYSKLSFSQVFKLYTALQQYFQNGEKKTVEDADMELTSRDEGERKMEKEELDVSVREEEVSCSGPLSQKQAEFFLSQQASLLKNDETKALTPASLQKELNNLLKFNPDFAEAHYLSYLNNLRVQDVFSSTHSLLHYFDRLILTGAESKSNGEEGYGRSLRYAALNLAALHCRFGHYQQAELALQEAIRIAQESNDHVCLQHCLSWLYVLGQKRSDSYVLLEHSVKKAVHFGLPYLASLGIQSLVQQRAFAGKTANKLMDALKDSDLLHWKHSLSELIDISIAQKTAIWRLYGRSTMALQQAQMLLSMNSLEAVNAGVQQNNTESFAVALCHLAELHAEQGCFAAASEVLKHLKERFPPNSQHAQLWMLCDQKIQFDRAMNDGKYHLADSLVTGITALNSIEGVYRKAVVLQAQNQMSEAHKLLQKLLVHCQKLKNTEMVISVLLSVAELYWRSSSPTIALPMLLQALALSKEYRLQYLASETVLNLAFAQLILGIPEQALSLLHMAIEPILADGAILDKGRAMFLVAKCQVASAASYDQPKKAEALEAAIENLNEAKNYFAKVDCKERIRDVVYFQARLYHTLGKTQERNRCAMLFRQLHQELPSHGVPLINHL
Procedure: as §1, §2, §3

APC8 = target: T7, APC8 (Homo sapiens, UniProt Q9UJX2); experiment: Peptide binding assay (matrix-coupled peptides), APC8; settings: insect cell lysates; western blot
T7 construct: HisHA; made in house; host or cells: Sf9 or Hi5 insect cells (baculovirus), used as lysate
T7 sequence (Q9UJX2 whole entry): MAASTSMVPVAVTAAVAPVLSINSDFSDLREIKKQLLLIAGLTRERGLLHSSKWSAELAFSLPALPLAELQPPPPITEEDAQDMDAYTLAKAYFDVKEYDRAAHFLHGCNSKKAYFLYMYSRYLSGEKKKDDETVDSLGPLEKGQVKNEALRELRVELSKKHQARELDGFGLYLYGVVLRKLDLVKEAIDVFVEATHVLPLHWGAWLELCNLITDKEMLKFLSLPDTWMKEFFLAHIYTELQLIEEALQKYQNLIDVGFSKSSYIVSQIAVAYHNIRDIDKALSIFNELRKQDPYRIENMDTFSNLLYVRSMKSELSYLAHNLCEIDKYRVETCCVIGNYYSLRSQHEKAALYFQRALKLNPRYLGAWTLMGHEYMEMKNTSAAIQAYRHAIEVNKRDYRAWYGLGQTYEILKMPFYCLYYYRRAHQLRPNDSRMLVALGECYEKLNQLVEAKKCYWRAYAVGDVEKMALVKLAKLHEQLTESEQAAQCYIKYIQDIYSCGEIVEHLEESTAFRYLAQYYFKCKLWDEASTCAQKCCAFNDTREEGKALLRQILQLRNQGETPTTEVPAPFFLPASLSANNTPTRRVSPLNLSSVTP
Procedure: as §1, §2, §3

CDC26 = target: T8, CDC26 (Homo sapiens, UniProt Q8NHZ8); experiment: Peptide binding assay (matrix-coupled peptides), CDC26; settings: late-eluting Q column fractions from HeLa extracts; listed as CDH1 peptide
T8 construct: endogenous in cells; host or cells: HeLa cells, late-eluting Source15Q fractions
T8 sequence (Q8NHZ8 whole entry): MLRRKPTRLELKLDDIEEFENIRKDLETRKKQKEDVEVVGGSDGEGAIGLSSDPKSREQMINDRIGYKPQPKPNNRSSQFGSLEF
Procedure: as §1, §2, §4

[1] = target: T9, binding of recombinant CDH1 to APC (Homo sapiens, UniProt P30260+Q9UJX3); experiment: CDH1 binding assay with competing peptides; settings: peptides at 1 mg/ml; for effect of peptide on CDH1 binding to APC: quantitative immunoblotting with radiolabeled antibodies
T9 construct: endogenous in cells; host or cells: APC immunopurified from HeLa cell extracts; CDH1 recombinant, made in house
Procedure: as §5, §6

[2] = target: T10, recombinant HisHA-tagged APC5 (UniProt Q9UJX4 1-755); experiment: matrix-coupled peptide pull-down from insect cell lysate, western blot
T10 construct: Expressed with baculovirus in insect cells; used as lysate; not shown: HisHA tag
T10 sequence (Q9UJX4 whole entry): as the sequence (Q9UJX4 whole entry) above
Procedure: as §2
(§7) To test if APC3 would also interact with the C-termini of CDH1 and its related activator CDC20, insect cell lysates containing recombinantly expressed APC3 were incubated with synthetic peptides coupled to a matrix through their N-terminus. After washing, peptide-bound material was analyzed by western blot. […] APC7, on the other hand, interacted strongly with the CDH1 C-terminus and moderately with CDC20's C-terminus (FIG. 5A), in a manner very similar to APC3. […] In budding yeast, which lacks APC7, they share Cdc27p as their closest homologue.

[3] = target: T11, recombinant HisHA-tagged APC8 (UniProt Q9UJX2 1-597); experiment: as above
T11 construct: Expressed with baculovirus in insect cells; used as lysate; also called APC8/CDC23; not shown: HisHA tag
T11 sequence (Q9UJX2 whole entry): as the sequence (Q9UJX2 whole entry) above
Procedure: as §2, §7

[4] = target: native CDC26 from late-eluting anion exchange fractions of HeLa extract (human, UniProt Q8NHZ8 1-85); experiment: matrix-coupled peptide pull-down from late-eluting Q column fractions, western blot
Chain of native CDC26 from late-eluting anion exchange fractions of HeLa extract (Q8NHZ8 whole entry): as the sequence (Q8NHZ8 whole entry) above
Procedure: as §2, §4

[5] = recombinant APC3 in insect cell lysates, western blot
[6] = late-eluting Q column fractions from HeLa extracts
[7] = listed as C-terminal CDH1 peptide
[8] = listed as C-terminal peptide of CDH1
[9] = listed as C-terminal CDC20 peptide

Row | Molecule | binding of recombinant APC3 to matrix-coupled peptide (APC3; [5]) | binding of recombinant APC6 to matrix-coupled peptide (APC6) | binding of holo-APC (all known subunits) to peptide matrix (holo-APC) | effect of peptide on APC activation (ubiquitination activity) (APC activation by CDH1) | binding of recombinant APC7 to matrix-coupled peptide (APC7) | binding of recombinant APC5 to matrix-coupled peptide (APC5) | binding of recombinant APC8 to matrix-coupled peptide (APC8) | binding result [2] | binding result [3] | other results
1 | CAVWSLSSCKPGFGVD (Control peptide) [reference compound] | did not bind | low amounts | not |  |  |  |  |  |  | 
2 | CESDLHSLLQLDAPIPNAPPARW (listed as Homo sapiens) [N-terminal CDC20 peptide, synthetic peptide of the CDC20 N-terminus used as control, reference compound] |  |  |  | no effect |  |  |  |  |  | 
3 | CFSKTRSTKESVSVLNLFTRIR (listed as Homo sapiens) [CDH1 C-terminal peptide, IR peptide; authentic human CDH1 C-terminus] | even stronger binding | bound only in low amounts | strongly enriched |  | interacted strongly | interacted with neither | did not bind |  |  | binding of native APC3 to peptide matrix (APC3; [6]): significantly retained; binding of native APC7 to peptide matrix (APC7; [6]): significantly retained; binding of native APC6 to peptide matrix (APC6; late-eluting Q column fractions from HeLa extracts, listed as CDH1 peptide): did not bind; binding of CDC26 to peptide matrix (CDC26): no binding at all; also recorded: did not bind; inhibitory effect compared with the CDC20 C-terminal peptide ([1]; comparison of the two C-terminal peptides): stronger effect; effect of peptide on CDH1 binding to APC [1, 7]: inhibit; effect of peptide on CDH1 binding to APC [1, 8]: diminished binding of CDH1; effect of peptide on APC activation (ubiquitination activity) (APC activation by CDH1; [7]): inhibit; effect of peptide on APC activation (ubiquitination activity) (APC activation by CDH1; [8]): blocked APC activation efficiently
4 | CLRREREKASTSKSSLIHQGIR (listed as Homo sapiens) [C-terminal peptide of CDC20, IR peptide; authentic human CDC20 C-terminus] |  | bound only in low amounts |  | blocked APC activation efficiently | moderately | interacted with neither | did not bind |  |  | input APC3 bound to matrix-coupled peptide (APC3; recombinant APC3 in insect cell lysates, western blot, % of input): about 10%; effect of peptide on CDH1 binding to APC [1]: diminished binding of CDH1; effect of peptide on CDH1 binding to APC [1, 9]: inhibit; effect of peptide on APC activation (ubiquitination activity) (APC activation by CDH1; [9]): inhibit
5 | B1 |  |  |  |  |  |  |  | no binding | no binding | 
6 | B2 |  |  |  |  |  |  |  | no binding | no binding | binding result [4]: no binding
